± gives the standard error. This sample holds only a part of the variants without activity.
B1: glmS ribozyme (parent)
chain: AUAAAAGCGCCAGAACUACAGAAAUGUAGUUGACGAGGAGGAGGUUUAUCGAAUUUUCGGCGGAUGCCUCCAAA

Key:
Details in all cases: with glucosamine-6-phosphate
glucosamine-6-phosphate [1] = variants of: B1; assay: self-cleavage kobs at 160 uM GlcN6P; higher = faster cleavage; RNA array
In short: (§1)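 Glucosamine-6-phosphate in HEPES/KCl/Mg(OAc)2 buffer, at 40 μM to 10 mM, was flowed over barcoded ribozyme variants transcribed in situ by E. coli RNA polymerase on sequenced MiSeq chips. Tracking was through a hybridised Cy3 probe at 37 °C. kobs, kcat and KM came from exponential decay fits and weighted Michaelis–Menten fits of normalised per-tile medians.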

glucosamine-6-phosphate [2] = variants of: B1; assay: self-cleavage kobs at 640 uM GlcN6P; higher = faster cleavage; RNA array
In short: as §1

glucosamine-6-phosphate [3] = variants of: B1; assay: self-cleavage kobs at 2500 uM GlcN6P; higher = faster cleavage; RNA array
In short: as §1

glucosamine-6-phosphate [4] = variants of: B1; assay: self-cleavage kobs at 10000 uM GlcN6P; higher = faster cleavage; RNA array
In short: as §1

| Variant | self-cleavage kobs at 160 uM GlcN6P (glucosamine-6-phosphate [1]) [s⁻¹] | self-cleavage kobs at 640 uM GlcN6P (glucosamine-6-phosphate [2]) [s⁻¹] | self-cleavage kobs at 2500 uM GlcN6P (glucosamine-6-phosphate [3]) [s⁻¹] | self-cleavage kobs at 10000 uM GlcN6P (glucosamine-6-phosphate [4]) [s⁻¹] |
| --- | --- | --- | --- | --- |
| A39C G63C | < 1e-05 | < 1e-05 | < 1e-05 | < 1e-05 |
| A6G A14C A42G U49G | < 1e-05 |  |  |  |
| A12U G35U U55G | < 1e-05 |  |  |  |
| A12G C34U G41A | < 1e-05 | < 1e-05 |  |  |
| G38A A39C U57A | < 1e-05 | < 1e-05 |  |  |
| G7C C68G | < 1e-05 | < 1e-05 | < 1e-05 | < 1e-05 |
| C10U G60U C70G | < 1e-05 | < 1e-05 |  |  |
| C8A G44C C68A C71G | < 1e-05 |  |  |  |
| U30C U54A C68A | 7.12e-05 ± 2.1e-05 |  | 5.33e-05 ± 2.5e-05 |  |
| A15G C16U A33U A39G | < 1e-05 |  |  |  |
| C11U A42U | < 1e-05 | < 1e-05 | < 1e-05 |  |
| G7U G66A | < 1e-05 |  |  | < 1e-05 |
| A12C A15G C50G U56G C67G | 0.000121 ± 2.8e-05 | 0.000141 ± 3.7e-05 | 0.000133 ± 3.1e-05 | 4.37e-05 ± 1.2e-05 |
| G35A G40A U46C G60U | < 1e-05 |  | < 1e-05 |  |
| U30C G35U A39C | < 1e-05 |  | < 1e-05 |  |
| G37U C50U C58A G60C A64C | < 1e-05 | < 1e-05 | < 1e-05 |  |
| C11A A39U C61U C70G | < 1e-05 | < 1e-05 | < 1e-05 |  |
| A15C C16G C50G A64C | 0.000208 ± 6.7e-05 | 7.03e-05 ± 2.7e-05 | 5.92e-05 ± 1.8e-05 |  |
| C10G A39U | < 1e-05 | < 1e-05 |  |  |
| G7U G51U | < 1e-05 | < 1e-05 | < 1e-05 | < 1e-05 |
| A42G C61A C67A | 0.000467 ± 0.00018 |  |  |  |
| G32U G51U G66A | < 1e-05 | < 1e-05 |  |  |
| A14C G37A G43A C58U C68G | < 1e-05 |  |  |  |
| C11U A14G A39G G60C | < 1e-05 | < 1e-05 |  |  |
| G9A A36G C67U | < 1e-05 |  |  |  |
| G43A C58U | < 1e-05 | < 1e-05 |  | < 1e-05 |
| U47G U49G G51A G62U | < 1e-05 | < 1e-05 | < 1e-05 |  |
| G9U A12C G40A G41U G43U G63U | < 1e-05 |  |  |  |
